Assay: soluble on expression in E. coli; label from the status in PepcDB or PDB records

Q: With “MPRPSLRRGEETSGARSLHEIAPPAEKAVRKPLNLLPFRKDTPMTKDSYFHKSRAGVAGAPLFVLLHGTGGDENQFFDFGARLLPQATILSPVGDVSEHGAARFFRRTGEGVYDMVDLERATGKMADFIKANREHYQAGPVIGLGFSNGANILANVLIEQPELFDAAVLMHPLIPFEPKISPAKPTRRVLITAGERDPICPVQLTKALEESLKAQGGTVETVWHPGGHEIRSGEIDAVRGFLAAYGG” as the sequence, how does the “soluble on expression in E. coli” value read?
A: Its value is “soluble”.

Q: With “MPRPSTCADSGGGMMTTLTARPEAITFDPQQSALIVVDMQNAYATPGGYLDLAGFDVSTTRPVIANIQTAVTAARAAGMLIIWFQNGWDEQYVEAGGPGSPNFHKSNALKTMRKQPQLQGKLLAKGSWDYQLVDELVPQPGDIVLPKPRYSGFFNTPLDSILRSRGIRHLVFTGIATNVCVESTLRDGFFLEYFGVVLEDATHQAGPKFAQKAALFNIETFFGWVSDVETFCDALSPTSFAHIA” as the sequence, how does the “soluble on expression in E. coli” value read?
A: Its value is “not soluble”.

Q: Which “soluble on expression in E. coli” value does the source give for “MPRTFEEECDFIDRLTDTKFRIKKGFVPNMNVEGRFYVNNSLEQLMFDELKFSCDGQGIGGFLPAVRQIANVASLPGIVGHSIGLPDIHSGYGFSIGNIAAFDVGNPESVISPGGVGFDINCGVRLLRTNLFEENVKPLKEQLTQSLFDHIPVGVGSRGAIPMLASDLVECLEMGMDWTLREGYSWAEDKEHCEEYGRMLQADASKVSLRAKKRGLPQLGTLGAGNHYAEVQVVDEIYDKHAASTMGIDEEGQVVVMLHCGSRGLGHQVATDSLVEMEKAMARDGIVVNDKQLACARINSVEGKNYFSGMAAAANFAWVNRSCITFCVRNAFQKTFGMSADDMDMQVIYDVSHNVAKMEEHMVDGRPRQLCVHRKGATRAFPAHHPLIPVDYQLIGQPVLIGGSMGTCSYVLTGTEQGLVETFGTTCHGAGRALSRAKSRRTITWDSVIDDLKKKEISIRIASPKLIMEEAPESYKNVTDVVDTCDAAGISKKAVKLRPIAVIKG” here?
A: Its value is “not soluble”.

Q: Which “soluble on expression in E. coli” value does the source give for “MPRTHGYAPIGKRCHGKCNWHARGRINVIGALIGKCLLTVGLFKNNIDADTFLGWTIHDLLPKLPPASIVVMDNATFRKRQDIQNVITRGGHTLEYLPAYSPDLNPIEHKWAQTKAVRKQQNQTVEQLFKIESFYVTLEHHHHHH” here?
A: Its value is “soluble”.

Q: Which “soluble on expression in E. coli” value does the source give for “MPSAHSVKLRPLEREDLRYVHQLDNNASVMRYWFEEPYEAFVELSDLYDKHIHDQSERRFVVECDGEKAGLVELVEINHVHRRAEFQIIISPEYQGKGLATRAAKLAMDYGFTVLNLYKLYLIVDKENEKAIHIYRKLGFSVEGELMHEFFINGQYRNAIRMCIFQHQYLAEHKTPGQTLLKPTAQLEHHHHHH” here?
A: The value was “not soluble”.

Q: Which “soluble on expression in E. coli” value does the source give for “MPSKQDVLLLDYWDQWAEAYRINGKSINTVYRYKLFRKHLKSRFDGRKLNSIRPIEWQKFINDFAAGKDRKEKTTRKRPRERSKDIVTKMNSYVRGMVKAAINERILFSDFTFGTKTSGVRSSGKVKVLEHHHHHH” here?
A: The value was “soluble”.

Q: For “MPSLFKRSLLPKLRSFPLAAEAFTTLTGAAQFRRTLLEQIAQARRRIYIVALYLQQDEAGQEILDALHAAKAARPELEVVVVVDWLRAQRGLIGAGKQPGNSAWYQQMTRTHASEVPIYGVPVQTRELFGVLHLKGFIIDDCVLYSGASLNNVYLHKFDKYRFDRYHLLHNQALADSMHHLVQHGLVESRAVHRLDLPNLPTTRSLRNDIGDLRSRLKHATYDTTAGGLDKSGLSVSPLLGVGKGNPLNRVICELIAGAQRQLTICTPYFNLPLPVTREINRALERGVKIDIIVGDKTANDFYIPPSEPFKVIAALPYLYEISLRRFAKRHQKVIDNGQLNLHLWRDGDNTYHLKGMWVDERYTLLTGNNLNPRAFRLDLENALLLDDPKGELLQARNAEQAEIYRHTRRIEHFQYLDSLVDYPEAVGKFLRRVSRVRIERLLYRMLLEHHHHHH”, which “soluble on expression in E. coli” value is on record?
A: Its value is “not soluble”.

Q: With “MPSLLLLGAGHAHMTVMEAIPRLIERGHSVTVVGPGERHYYSGMGPGMLGGHYSPEDISFPVRQMVTQRGGTFITARATRIDPQRKHVVLDSGQELAYDVCSCNTGSHVPSSIVDGDATDVFPVKPIENLLAGRESIRRRASRGPVRIAVVGGGPAALEVAGNAAAALTQTGAQGNVAMYAGSSFLRRFPARVRELARKELQKARVKLHEGAYASAVHTGEVVLDNGERYEADIIFTALGVVPSPLFAASGLPVGKDGGLAVDAHLRCTEYDDIFGGGDCIWFTPQPLAKVGVYAVRQNPVLLHNLAARLEGGPLLTFSPGGEYLLIFNTGSGRGILHKAGFTFAGRLAFMVKDWIDRRFIRRFQPHLEHHHHHH” as the sequence, how does the “soluble on expression in E. coli” value read?
A: Its value is “not soluble”.

Q: Which “soluble on expression in E. coli” value does the source give for “MPSMLERISKNLVKEIGSKDLTPVKYLLSATKLRQFVILRKKKDSRSSFWEQSDYVPVEFSLNDILEPSSSVLETVVTGPFHFSDIMIQKHKADMGVNVGIEVSVSGEASVDHGCSLEFQIVTIPSPNLEDFQKRKLLDPEPSFLKECRRRGDNLYVVTEAVELINNTVLYDSSSVNILGKIALWITYGKGQGQGESLRVKKKALTLQKGMVMAYKRKQLVIKEKAILISDDDEQRTFQDEYEISEMVGYCAARSEGLLPSFHTISPTLFNASSNDMKLKPELFLTQQFLSGHLPKYEQVHILPVGRIEEPFWQNFKHLQEEVFQKIKTLAQLSKDVQDVMFYSILAMLRDRGALQDLMNMLELDSSGHLDGPGGAILKKLQQDSNHAWFNPKDPILYLLEAIMVLSDFQHDLLACSMEKRILLQQQELVRSILEPNFRYPWSIPFTLKPELLAPLQSEGLAITYGLLEECGLRTELDNPRSTWDVEAKMPLSALYGTLSLLQQLAEA” here?
A: The value was “soluble”.

Q: With “MPSNPTRKGRVVVGMSGGVDSSVTAWLLKQQGYEVVGLFMKNWEDDDDSEYCSTRQDLLDAASVADLVGVEFEYVNFAAEYKDRVFAEFLREYSAGRTPNPDVLCNAEIKFKAFLDHAMALGAEHIATGHYARVRTVETPAGPRHQLLKALDDTKDQSYFLHRLNQVQLARTLFPLGELRKTEVRRIAHEIGLHNAAKKDSTGICFIGERPFREFLNRYLPSEPGPILTPEGQRVGTHHGLSFYTLGQRKGLGVGGVKGRQRDDGTAEAWYAARKDLARNVLYVVQGHDHPWLLSAQLQAQDASWIAGEPPAAGAYGAKTRYRQADAACRLDQAGGERFALAFEQAQWAVTPGQSAVLYDGEVCLGGGIIILEHHHHHH” as the sequence, how does the “soluble on expression in E. coli” value read?
A: The value was “soluble”.

Q: For “MPSNSTTGAQKCSRKVHSLKFKLEAIEYASKFSKTKAARDLKVSRQCIQDWVAQKTKIESQLKSTNKTAPKRLEGGGRPVQRETVDESVLRWFRDQREKKFRVSRNLIRQKAKEICGEDDFKASTGWLQKFMRRHHLSTRRATTTCQKEPDEFAKKIVDYVLFVEKMRLQNKYTDTHIFAADETAVYLDFSNSLTLNEKGAREVGKTNTLFFYFSHPMMKRCLILFQVPVKTTGHEKMHVTVLLTARADGYKCRPYVLLPRTRPDKEIAARFKNSLQLSWCNRTFFNDEVTEDYLNTIIGPPFFGKRLLAWDAFRCHISDATKRVLKNLKVDTAVVPGGCTKFVQAPDVYWNSPFKASIRRSYEDWMVHGQKSFTKSNNMRPPSMLQYLEWIENAWNDLPKDLILKSFKGCALTIATDGSEDNQVHCFAPNGSIPSGLDLLNSTRIENSLVDLVQDIGIDESQEEGNESDNSIISVG”, which “soluble on expression in E. coli” value is on record?
A: Its value is “not soluble”.

Q: For “MPSTVEKMETEEYGKPDPNRLTTKLFAEYDALHEKQQNGMDEKKTMELLEPSEVFEIYSPATMEIISIAKEEGDILSDQSLKFLNEALRYTVVPRGYSPQGVDARTTVKNVATITKDLVDIGKIVFEKFPKYLQFFGPFGSLLKDILDMTKPEKKDPVLEELGNLKSQLESLSQKMVVQFDELKAFMVEKDFYNNYAHKASLLFDYMIDCVATIDTKTKERFEECYNEIKPERYVRDMLIKLESDVTNPLKVSMAGDELTSKATFQKWKDVLNSTLSQFLLLECFAMGFLHPKDESDSKKIIEKITYYTTLVEQWEKHYLNDRPYWPKLKKYVERIQGEGSFDKDEDMATELKKGLDSILTEDNFYLYVFEKNVHYEIHVVKPEMVFVSTNRGKFSVIISRAFEHSEYTCGQYWKKLDNIMYRRIERSIWYALETHMKEFVQWAVASYAKNDFKGCSYFLAFSSRNVAVRWTRKHGAEKGPGFINWDGQLTVFNVTTGTWNMLYMVGE”, which “soluble on expression in E. coli” value is on record?
A: Its value is “not soluble”.

Q: With “MPSVISTDVLIVGAGVAGLWLNARLRRQGFSTVLVESASLGGGQSLKSQGIIHGGAKYALHGALSGASEAIADMPRRWREALDGKGELDLSGVRLLSEAHYLWSPGTIAGNLTSFFASKAVRGRVDQVKGEQLPPALQNPKFKGKVYRLAELVVDVPSLIKRLAELAEDSLLAGQKIEPLYEADELIGLRVDGRDIHAQRIVLSAGGGTADLLNALGVSQPQMQRRPLHMVLVKGPTLKPLFAHCLGGGPKPRITVTTHPAADGQCVWYLGGDLAEADGVAREPDAQIAVARKELEALLPWVDLSQAQWATLRVDRAEPAQSGLVRPDNAFLDSQRRLMVGWPTKLALAPDFADRVLSHLSKDDIHPTPQAPLVDVPRPPLAIPVWDELLPLEHHHHHH” as the sequence, how does the “soluble on expression in E. coli” value read?
A: Its value is “not soluble”.

Q: With “MPSYTLTQLASAVRNCLESGFPGRYWVSAETSGVRVGISGHCYLELLDKDTSGSQVTARMKAMIWASDYATLSGRFQRETGETFDSGLHVLVLVSVSYHEQYGLSLRILDIDPSYTMGAMARKRKEIIEELRRQGLYDLNRSLSLPRPTQRIAIVSSGAAAGFEDFIAHLSHSAEHFCFYPVLFQAVMQGAQTEASVLGALERIAYHRDSFDVVVIIRGGGAVSELAAFDSLAIGQACARFPLPILTGIGHDRDETVVDLVAYRSLKTPTAVADFLVNCQREEWKLIDDLRSRAAEGLRMMMMYCHERLIQLSLRTPAILKSSVREEHHRIKSVEDRIRLAAKQRIAFGLQQLQIASRSLPALMKSELKQNTGQLDQVAARLPLLVTANLKNYNRRLETNEQAIRLLHPNATLRRGFAIVLKDDKAIRSHSELHKGDHLVAQFADGSVSAVVDQPQKGKH” as the sequence, how does the “soluble on expression in E. coli” value read?
A: Its value is “not soluble”.

Q: Which “soluble on expression in E. coli” value does the source give for “MPTDIFSFKQFDIDQTGCAMRVGTDGVLLGAWAGEDAAGSIPQHCLDIGTGTGLIALMLAQRFPQARVQGIEIDPIAAECARANAAASPFSDRIVIASGDILDSSLESLIGNQRFDLIVSNPPFFKSSMHAPDRQRTMARHEETLPLEKLICRASELLSPQGRLALITPRDRLKDLRLYAATYRLVSSRLTEVRTLPHKEPKRLLSEWRPADTAIDRSPFTDTLIIHPATGYYSPEYVRLTEPFYTTSFRILAVG” here?
A: The value was “soluble”.

Q: For “MPTFLECPHCQRLYSKHSLLIHEKNCIESMHKILEQEKLKMQNNQKRGRSKSGRRKKIRPAEMTTTERPRTRSLSRYNHENNGLRICFVCGEQYDDQVIEEHKEKCYGDWSILSKSLSVRFHIHQPKTLNTPSIDGTIDVARENMRAVQSSHNCQIVRCRFCNARISLQHAQSHQCVRFEPTIEFYC”, which “soluble on expression in E. coli” value is on record?
A: The value was “soluble”.

Q: For “MPTNCAAAGCATTYNKHINISFHRFPLDPKRRKEWVRLVRRKNFVPGKHTFLCSKHFEASCFDLTGQTRRLKMDAVPTIFDFCTHIKSMKLKSRNLLKKNNSCSPAGPSNLKSNISSQQVLLEHSYAFRNPMEAKKRIIKLEKEIASLRRKMKTCLQKERRATRRWIKATCLVKNLEANSVLPKGTSEHMLPTALSSLPLEDFKILEQDQQDKTLLSLNLKQTKSTFI”, which “soluble on expression in E. coli” value is on record?
A: The value was “not soluble”.

Q: For “MPTPTTLSEWQLLAVLSKANLVQYYDVFIAQGGDDINQIMACEEREFLEIMNLVGMLPKPLHVRRMQRALAEYSQDQTAFNLAALQQIGPPPPLNYTPAGTDPMALLLPGIAAATSPKFPSLRFLSQLSSVAEKVSTPSEAADTSSSSPSLNLNTTSSNSVPLAFKFSTPLLESLASDQQSSSTSSVRSVLPSTSSNTSHPELPAGILPATTTNVSAAVPPPSSRATANVFSGNSIGLNFSGAASVTRHLVVPPSSTSIQQPSTSFGRSSSITGQEKEGSSSPFLGVGYSQPYGNDFVSLGDFDPNNPSLTENPTLSTAQISRLAECALAASKNLPPLPPRLVQNKKRVSKEVIELLKCSPATPSMIHAFRKYSAIYGRFDTKRKPHKVLTLHETTVNEAAAQLCLLVPSLLTRRDELFPLARQIVKDAGYNYAKSRKRPCDPADLHSPISSPGNSPPPQESEFDEQPSSSSGAFKEEERPPIPPEAWAAIIEKMKGELPES”, which “soluble on expression in E. coli” value is on record?
A: The value was “not soluble”.

From the DeepSol protein solubility set
